Values quoted from earlier work in paper PMC6205161.

Biological target: apo-GLRX5 (Homo sapiens) (UniProt Q86SX6)
Assay: thermophoresis

UniProt Q86SX6, sequence (Q86SX6 32-157): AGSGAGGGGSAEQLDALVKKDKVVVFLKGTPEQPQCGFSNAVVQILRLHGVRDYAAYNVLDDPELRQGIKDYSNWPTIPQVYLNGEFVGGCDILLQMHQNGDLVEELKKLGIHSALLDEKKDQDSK

Substance | Kd
BOLA1 (from UniProt Q9Y3E2) | 3000 nM
BOLA3 (from UniProt Q53S33) | 3000 nM
